In US20250339501A1, “COMPOSITIONS AND METHODS FOR TREATING METABOLIC DISEASE” (The Regents of the University of California, priority 2021, published 2025):

Tests used:
[1] = tested on: liver inflammation, de-novo lipogenesis and gluconeogenesis genes; assay: Gene expression in the liver of NC- or HFD-fed mice; assay type: in vivo, mouse
Method: A wide variety of mechanisms activate the JNK pathway. […] Moreover, ASK1 is activated by various stresses, including oxidative stress, ER stress, calcium overload, and receptor-mediated inflammatory signals such as TNFα and lipopolysaccharide (LPS) (26,27). rDj1 administration suppressed both baseline and TNFα-induced ROS levels in HepG2 cells, which may contribute to reducing liver inflammation (FIG. 6F).
Also, the transcriptional activity of PPARα was determined to be elevated by Dj1 administration in the liver of both NC- and HFD-fed mice (FIGS. 6L, 6M, 6S, 6T). Furthermore, Dj1 elevated plasma β-hydroxybutyrate (a ketone body) levels in NC-fed mice but not in HFD-fed mice (FIG. 6N, 6U).

mitochondrial complex II = assay: Complex II activity of isolated liver mitochondria from treated HFD-fed mice; assay type: in vivo, mouse
HFD-fed mice = assay: Indirect calorimetry in HFD-fed mice; assay type: in vivo, mouse
Method: Elevated AMPK signaling and reduced lipid content in the liver led to the hypothesis that rDj1 might activate the whole-body energy metabolism of mouse. Therefore, the metabolic rate was determined in HFD-fed mice by indirect calorimetry.

HepG2 cells = assay: OCR/ECAR and mitochondrial ATP production in HepG2 cells; assay type: cell-based, human
Method: Mouse myoblast cells (C2C12) were maintained in high glucose DMEM/high, 10% fetal bovine serum with penicillin/streptomycin. pRK5-Dj1-HA plasmid was purchased from Addgene (#29396). Seeded cells were cultured in 6-well plates for 24 hours prior to transfection. Transfections were performed using Lipofectamine 2000 and PLUS reagent according to manufacturer instructions (Invitrogen, Carlsbad, CA). Human HepG2 cells were cultured in DMEM/low media containing 10% fetal bovine serum with penicillin/streptomycin. Mouse AML12 cells were maintained in DMEM/F12, ITS supplement (Gibco, USA), 40 ng/ml dexamethasone, and 10% fetal bovine serum with penicillin/streptomycin. For in vitro experiments, HepG2 cells were treated with or without recombinant human Dj1 protein (Novus, NBC1-18334) in serum-free media containing 25 mM glucose, 200 μM palmitic acid, and 0.25% bovine serum albumin for an indicated time.

[2] = Intravital imaging of IRDye 800CW-labeled Dj1 after tail-vein injection; assay type: in vivo, mouse; settings: WT mice
Method: Recombinant mouse Dj1 protein (NBP2-59523, Novus) were labeled with near-infrared dyes using IRDye 800CW protein labeling kit-Low MW (Li-COR Biosciences) as described in the manufacturer's instructions. 10 μg of labeled Dj1 protein was injected into wild-type C57BL/6J mouse through the tail vein. The mice were imaged at the indicated time using an IVIS Spectrum (PerkinElmer). For tissue analysis, recipient mice were euthanized by cervical dislocation, and tissues were then dissected and imaged. Fluorescence was detected using excitation and emission filters at 745 nm and 800 nm, respectively.
Myokines contribute to whole-body metabolism by directly signaling to distant organs (15-18). To determine which organs Dj1 targets, WT mice were tail-vein injected with a recombinant Dj1 (rDj1) protein labeled with the near-infrared fluorescent dye IRDye 800CW, and the fluorescent signals were tracked using an optical imaging system (FIGS. 3I, 3J). A robust fluorescent signal could be detected within 5 minutes post-injection. […] Considering that the reagents injected through tail-vein often nonspecifically target the liver, fluorescent-labeled rDj1 was used to determine whether Dj1 could bind to the plasma membrane of liver cells. rDj1 was labeled with Alex 488 and added into the medium of mouse liver cells (AML12 cells) at the indicated time.

AMPK signaling = assay: RNA sequencing analysis of HepG2 cells; assay type: cell-based, human
HFD-fed C57BL/6J mice = assay: rDj1 tail-vein injection daily for 5 days in HFD-fed mice; assay type: in vivo, mouse
Method: C57BL/10cSn-Dmd^mdx/J (001801, mdx) and C57BL/10ScSnJ (000476, WT) mice were ordered directly from The Jackson Laboratory. Different ages of mdx and WT mice were obtained. Animals were weaned 21 days after birth and had free access to food and water and were housed on 12 h light-dark cycle. C57BL/6J males were introduced to a normal diet (NC, Research Diets D15100601) or high-fat diet (HFD, Research Diets D12331), and maintained on a diet for the indicated time. The HFD diet derives 58% of its kilocalories (kcal) from fat (soybean and coconut oil), 25.5% from carbohydrates (sucrose and maltodextrin), and 16.4% from protein (casein). NASH model mice were fed for up to 28 weeks with the NASH diet (Envigo, TD.120528) and 42% fructose (Sigma, F0127) in the water (1,2). The NASH diet is composed of 405.36 g/Kg sucrose and 12.5 g/Kg cholesterol. Recombinant mouse Dj1 protein (Novus, NBP2-59523) or truncated mouse Dj1 (tDj1, GenScript) protein was intravenously injected every day for 5 days or every other day for 2 weeks. Skeletal muscle-specific Park7 knockout mice were generated by crossing Park7 flox mice with Myl1-cre mice (JAX, #024713). Mice were raised in microisolator cages with a 12 h: 12 h light: dark cycle. All procedures were performed in accordance with the Guide for Care and Use of Laboratory Animals of the National Institutes of Health, and were approved by the Animal Subjects Committee of the University of California, Los Angeles.
Cryosections (10-μm thick transverse sections of frozen muscle cut in a cryostat (Leica) at −20° C.) were subjected to hematoxylin & eosin (H&E) staining (10, 54). Liver tissues were fixed in phosphate-buffered 10% formalin and embedded in paraffin wax. Sections were cut and stained with H&E.
Plasma and liver NEFA, Cholesterol, and Triglyceride were analyzed by their respective kits (FUJIFILM Wako Diagnostics)
About 80 mg of liver samples were homogenized and sonicated in PBS (pH 7.4) for lipid extraction. An internal standard mixture (ISTD) and CHCl3:methanol (2:1) were added to the samples before being vortexed, mixed, sonicated, and centrifuged. The supernatant containing the lipid was removed and dried, the lipids were resuspended in ethanol and then sonicated.
AMPK signaling is vital for lipid metabolism in the liver (19). […] These findings indicate that Dj1 could enhance lipid metabolism and ameliorate HFD-induced hepatic steatosis. rDj1 was tail-vein injected into mice fed with a chow diet (NC) or high-fat diet (HFD) daily for 5 days. […] Although body weights and fasting blood glucose levels of HFD-fed mice were unchanged during the rDj1 administration, rDj1 indeed enhanced glucose homeostasis and insulin action, as evidenced by improving glucose tolerance tests and insulin tolerance tests, respectively (FIGS. 4K-4M, 4U-4Z).

B1: rDj1: full-length recombinant Dj1 protein; mouse protein (Novus, NBP2-59523) injected in mice, human protein used in HepG2 cells (protein, UniProt Q99LX0 1-189, looked up)
chain: MASKRALVILAKGAEEMETVIPVDVMRRAGIKVTVAGLAGKDPVQCSRDVMICPDTSLEDAKTQGPYDVVVLPGGNLGAQNLSESPMVKEILKEQESRKGLIAAICAGPTALLAHEVGFGCKVTTHPLAKDKMMNGSHYSYSESRVEKDGLILTSRGPGTSFEFALAIVEALVGKDMANQVKAPLVLKD
modifications: full-length
notes: full-length recombinant Dj1 protein; mouse protein (Novus, NBP2-59523) injected in mice, human protein used in HepG2 cells
- reduction of gene expression of de-novo lipogenesis ([1]; liver of HFD-fed mice): blunted
- reduction of gene expression of gluconeogenesis ([1]; liver of HFD-fed mice): blunted
- gene expression of de-novo lipogenesis ([1]; liver of NC-fed mice): reduced
- gene expression of gluconeogenesis ([1]; liver of NC-fed mice): reduced
- mitochondrial complex II activity (mitochondrial complex II): Enhanced
- energy expenditure (EE) (HFD-fed mice): elevated
- oxygen consumption (VO2) (HFD-fed mice): elevated
- respiratory exchange ratio (RER) (HFD-fed mice): reducing
- mitochondrial ATP production rate (HepG2 cells): enhanced
- oxygen consumption rate/extracellular acidification rate (OCR/ECAR) (HepG2 cells): enhanced
- organs in which most fluorescent signals accumulated ([2]; 4 hours post-injection, tail-vein): accumulated in the liver, kidney, and urine
- time until robust fluorescent signal detected post-injection ([2]; IRDye 800CW-labeled rDj1, tail-vein): ≤ 5 min
- AMPK signaling (RNA sequencing analysis) (AMPK signaling): upregulated
- TGs levels in the liver (HFD-fed C57BL/6J mice; 0.15 mg/kg/day IV for 5 days): decreasing
- glucose tolerance tests (HFD-fed C57BL/6J mice; 0.15 mg/kg/day IV for 5 days): improving
- insulin tolerance tests (HFD-fed C57BL/6J mice; 0.15 mg/kg/day IV for 5 days): improving
- liver H&E staining, lipids (HFD-fed C57BL/6J mice; daily for 5 days): fewer lipids
- body weights (HFD-fed C57BL/6J mice; during rDj1 administration): unchanged
- fasting blood glucose levels (HFD-fed C57BL/6J mice; during rDj1 administration): unchanged
